Values of other authors, collected in publication PMC6188814.

Molecular target: ALDH7A1 (Homo sapiens) (UniProt P49419)
Experiment: analytical ultracentrifugation

ALDH7A1 (from UniProt P49419)
Kd: 16 µM
